Measured values reported in EP4435012A1 (Juventus Cell Therapy Ltd., dated 2024).

T1: BCMA on MM.1S cells (human multiple myeloma cells that endogenously express BCMA) (human, UniProt Q02223 1-184)
T1 sequence (looked up): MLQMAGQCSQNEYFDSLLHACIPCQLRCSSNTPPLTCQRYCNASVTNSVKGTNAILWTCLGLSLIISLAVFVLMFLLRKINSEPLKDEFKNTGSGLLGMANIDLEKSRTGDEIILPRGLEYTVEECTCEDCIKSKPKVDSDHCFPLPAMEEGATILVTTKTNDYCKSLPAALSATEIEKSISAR


Target: T1, BCMA on MM.1S cells (human multiple …)
Assay: cell-based or functional assay

| Binder | killing of target cell (luciferase activity in target cell, effector/target 1:4, 48 hours) [%] |
| --- | --- |
| BY-01G CAR (on BCMA CAR-T cell BY-01G) (other) EIVMTQSPSTLSASVGDRVIITCQASENIYRNLAWYQQKPGKAPKLLIYAASLLASGVPSRFSGSGSGAEFTLTISSLQPDDFATYYCQNAFYSSSADNPFGQGTKLTVLGGGGSGGGGSGGGGSEVQLVESGGGLVQPGGSLRLSCTASGFSLSSYAMSWVRQAPGKGLEWIGMISSSGSTHYASWAKGRFTISRDTSKNTVYLQMNSLRAEDTAVYYCARDFYVYSSGTYLEYGMDLWGQGTLVTVSSTTTPAPRPPTPAPTIASQPLSLRPEACRPAAGGAVHTRGLDFACDIYIWAPLAGTCGVLLLSLVITLYCKRGRKKLLYIFKQPFMRPVQTTQEEDGCSCRFPEEEEGGCELRVKFSRSADAPAYQQGQNQLYNELNLGRREEYDVLDKRRGRDPEMGGKPRRKNPQEGLYNELQKDKMAEAYSEIGMKGERRRGKGHDGLYQGLSTATKDTYDALHMQALPPR | 100 |
| BY-04G CAR (on BCMA CAR-T cell BY-04G) (other) EIVMTQSPSTLSASVGDRVIINCQASQSVFSNNYLAWYQQKPGKAPKLLIYRASNLASGVPSRFSGSGSGAEFTLTISSLQPDDFATYYCQPTYLSGDWYVAFGQGTKLTVLGGGGSGGGGSGGGGSEVQLVESGGGLVQPGGSLRLSCTASGFSLNYYGMGWVRQAPGKGLEWIGIIAGDRDTYYATWAKGRFTISRDNSKNTVYLQMNSLRAEDTAVYFCARGSYSSTWDGAFDLWGPGTLVTVSSTTTPAPRPPTPAPTIASQPLSLRPEACRPAAGGAVHTRGLDFACDIYIWAPLAGTCGVLLLSLVITLYCKRGRKKLLYIFKQPFMRPVQTTQEEDGCSCRFPEEEEGGCELRVKFSRSADAPAYQQGQNQLYNELNLGRREEYDVLDKRRGRDPEMGGKPRRKNPQEGLYNELQKDKMAEAYSEIGMKGERRRGKGHDGLYQGLSTATKDTYDALHMQALPPR | 100 |
